Reference: article PMC11955521, “A GTP-driven central carbon metabolism in the cellulolytic bacterium Ruminiclostridium cellulolyticum” (Communications Biology, 2025)

Experiments:
HPLC-RI of products [1] = substrate: O=C(CO)[C@@H](O)[C@H](O)CO; assay: HPLC-RI of products; type: biochemical, Ruminiclostridium cellulolyticum; conditions: GTP 10 mM, 20 mM MgCl2, 25 mM HEPES pH 7.0, 37 °C
Description: (§1) HPLC-RI of products on Xylulokinase (XK)

HPLC-RI of products [2] = substrate: Nc1nc2c(ncn2[C@@H]2O[C@H](COP(=O)(O)OP(=O)(O)OP(=O)(O)O)[C@@H](O)[C@H]2O)c(=O)[nH]1; assay: HPLC-RI of products; type: biochemical, Ruminiclostridium cellulolyticum; conditions: xylulose 2.5 mM, 20 mM MgCl2, 25 mM HEPES pH 7.0, 37 °C
Description: as §1

HPLC-RI of products [3] = substrate: Nc1ncnc2c1ncn2[C@@H]1O[C@H](COP(=O)(O)OP(=O)(O)OP(=O)(O)O)[C@@H](O)[C@H]1O; assay: HPLC-RI of products; type: biochemical, Ruminiclostridium cellulolyticum; conditions: xylulose 2.5 mM, 20 mM MgCl2, 25 mM HEPES pH 7.0, 37 °C
Description: as §1

[4] = substrate: Nc1ncnc2c1ncn2[C@@H]1O[C@H](COP(=O)(O)OP(=O)(O)OP(=O)(O)O)[C@@H](O)[C@H]1O; assay: HPLC-RI, glucose consumption; type: biochemical, Escherichia coli; conditions: glucose 5 mM, 20 mM MgCl2, 25 mM HEPES pH 7.0, 37 °C
[5] = substrate: Nc1nc2c(ncn2[C@@H]2O[C@H](COP(=O)(O)OP(=O)(O)OP(=O)(O)O)[C@@H](O)[C@H]2O)c(=O)[nH]1; assay: GAPDH-coupled NADH oxidation; type: biochemical, Ruminiclostridium cellulolyticum; conditions: reverse, 3-PG 25 mM, 0.3 mM NADH, 10 mM MgCl2, 50 mM phosphate pH 7.0, 15 mM cysteine, 37 °C
[6] = substrate: Nc1ncnc2c1ncn2[C@@H]1O[C@H](COP(=O)(O)OP(=O)(O)OP(=O)(O)O)[C@@H](O)[C@H]1O; assay: GAPDH-coupled NADH oxidation; type: biochemical, Ruminiclostridium cellulolyticum; conditions: reverse, 3-PG 4 mM, 0.3 mM NADH, 10 mM MgCl2, 50 mM phosphate pH 7.0, 15 mM cysteine, 37 °C
purified protein [7] = substrate: Nc1ncnc2c1ncn2[C@@H]1O[C@H](COP(=O)(O)OP(=O)(O)O)[C@@H](O)[C@H]1O; assay: purified protein; type: biochemical, Ruminiclostridium cellulolyticum; conditions: forward, 3 mM glyceraldehyde-3-P, 1.1 mM NAD+, 10 mM MgCl2, 50 mM phosphate pH 7.0, 15 mM cysteine, 37 °C, 1,3-BPG concentration unknown, Hill fit, nH 4.03
purified protein [8] = substrate: Nc1nc2c(ncn2[C@@H]2O[C@H](COP(=O)(O)OP(=O)(O)O)[C@@H](O)[C@H]2O)c(=O)[nH]1; assay: purified protein; type: biochemical, Ruminiclostridium cellulolyticum; conditions: forward, 3 mM glyceraldehyde-3-P, 1.1 mM NAD+, 10 mM MgCl2, 50 mM phosphate pH 7.0, 15 mM cysteine, 37 °C, 1,3-BPG concentration unknown, Hill fit, nH 1.63
HPLC-RI of products [9] = substrate: CC(=O)OP(=O)(O)O; assay: HPLC-RI of products; type: biochemical, Ruminiclostridium cellulolyticum; conditions: ADP 10 mM, 20 mM MgCl2, 25 mM HEPES pH 7.0, 37 °C
Description: (§2) HPLC-RI of products on Acetate kinase (AK)

HPLC-RI of products [10] = substrate: Nc1ncnc2c1ncn2[C@@H]1O[C@H](COP(=O)(O)OP(=O)(O)O)[C@@H](O)[C@H]1O; assay: HPLC-RI of products; type: biochemical, Ruminiclostridium cellulolyticum; conditions: acetyl-P 5 mM, 20 mM MgCl2, 25 mM HEPES pH 7.0, 37 °C
Description: as §2

HPLC-RI of products [11] = substrate: Nc1ncnc2c1ncn2[C@@H]1O[C@H](COP(=O)(O)OP(=O)(O)OP(=O)(O)O)[C@@H](O)[C@H]1O; assay: HPLC-RI of products; type: biochemical, Ruminiclostridium cellulolyticum; conditions: reverse reaction, acetate 10 mM, 20 mM MgCl2, 25 mM HEPES pH 7.0, 37 °C
Description: as §2

HPLC-RI of products [12] = substrate: Nc1nc2c(ncn2[C@@H]2O[C@H](COP(=O)(O)OP(=O)(O)O)[C@@H](O)[C@H]2O)c(=O)[nH]1; assay: HPLC-RI of products; type: biochemical, Ruminiclostridium cellulolyticum; conditions: acetyl-P 5 mM, 20 mM MgCl2, 25 mM HEPES pH 7.0, 37 °C
Description: as §2

purified protein [13] = substrate: CC(=O)O; assay: purified protein; conditions: reverse reaction, ATP 10 mM, 20 mM MgCl2, 25 mM HEPES pH 7.0, 37 °C
HPLC-RI of pyruvate [14] = substrate: Nc1ncnc2c1ncn2[C@@H]1O[C@H](COP(=O)(O)OP(=O)(O)O)[C@@H](O)[C@H]1O; assay: HPLC-RI of pyruvate; type: biochemical, Ruminiclostridium cellulolyticum; conditions: PEP 10 mM, no FBP, 20 mM MgCl2, 30 mM KCl, 25 mM HEPES pH 7.0, 37 °C, Hill fit, nH 1.41
Description: (§3) HPLC-RI of pyruvate on Pyruvate kinase (PK)

HPLC-RI of pyruvate [15] = substrate: C=C(OP(=O)(O)O)C(=O)O; assay: HPLC-RI of pyruvate; type: biochemical, Ruminiclostridium cellulolyticum; conditions: ADP 5 mM, no FBP, 20 mM MgCl2, 30 mM KCl, 25 mM HEPES pH 7.0, 37 °C, Hill fit, nH 1.32
Description: as §3

HPLC-RI of pyruvate [16] = substrate: Nc1nc2c(ncn2[C@@H]2O[C@H](COP(=O)(O)OP(=O)(O)O)[C@@H](O)[C@H]2O)c(=O)[nH]1; assay: HPLC-RI of pyruvate; type: biochemical, Ruminiclostridium cellulolyticum; conditions: PEP 10 mM, no FBP, 20 mM MgCl2, 30 mM KCl, 25 mM HEPES pH 7.0, 37 °C
Description: as §3

B1: Xylulokinase (XK) (Ruminiclostridium cellulolyticum H10) (protein)
chain: MSFLIGIDLGTSGVKTVLFDEAGKPVASSTVEYPLYQPNLGWAEQDPEEWWKGTCESINNVMLKSGVDKREVKGIGLSGQMHGAVLLDKDDKVLRNAIIWCDQRSAAECDEITDLIGRERLIEITANPALTGFTASKIMWVKNNEPQIFEKIAKILLPKDYIRFRLTGEYATEVSDASGMQLMNIAKREWSIEVLDKLGLSTSMLGKMYESQEVTGKVTSSAADQTGLNAGTIVVGGGGDQAAGAVGNGIVKSGIVSSTIGTSGVVFAYTDKLTIDPLGRVHTFCHAVPNTYHVMGVTQGAGLSLKWFRDNFCMEEMMTSELSDIDVYKLLDAEAETIKPCSDGLVYLPYLMGERTPHLDPNAKGVFFGLTAKHTKPHFIRSIMEGVTFSLRDCLEIIKGMGVDVSEVRASGGGGKSGIWRQMQADVFGTNINRIRSDEGPALGVAILAGVGAGIYDSVPQACEEVIKVKDTLAPVEDRIKKYDDFYKLYTKLYKSLKDDFNQLSTILK
notes: full-length, C-terminal His tag (pET28a), E. coli BL21(DE3), Ni-NTA and anion exchange
Km (HPLC-RI of products [1]): 0.30 ± 0.07 mM | kcat (HPLC-RI of products [1]): 8788 ± 375 iu/µmol | Km (HPLC-RI of products [2]): 0.12 ± 0.02 mM | kcat (HPLC-RI of products [2]): 6540 ± 177 iu/µmol | Km (HPLC-RI of products [3]): 1.18 ± 0.18 mM | kcat (HPLC-RI of products [3]): 6653 ± 281 iu/µmol

B2: E. coli glucokinase (GLK) (Escherichia coli K-12) (protein)
chain: MTKYALVGDVGGTNARLALCDIASGEISQAKTYSGLDYPSLEAVIRVYLEEHKVEVKDGCIAIACPITGDWVAMTNHTWAFSIAEMKKNLGFSHLEIINDFTAVSMAIPMLKKEHLIQFGGAEPVEGKPIAVYGAGTGLGVAHLVHVDKRWVSLPGEGGHVDFAPNSEEEAIILEILRAEIGHVSAERVLSGPGLVNLYRAIVKADNRLPENLKPKDITERALADSCTDCRRALSLFCVIMGRFGGNLALNLGTFGGVFIAGGIVPRFLEFFKASGFRAAFEDKGRFKEYVHDIPVYLIVHDNPGLLGSGAHLRQTLGHIL
notes: full-length, C-terminal His tag (pET22b+), E. coli BL21(DE3), Ni-NTA and anion exchange
Km [4]: 2.47 ± 0.39 mM

B3: Phosphoglycerate kinase (PGK) (Ruminiclostridium cellulolyticum H10) (protein)
chain: MSMMNKKTIEDIDVAGKRVIVRVDFNVPLDENRKITDDKRIVGALPTIKYLVDKGAKTILVSHLGRPKEGFEDKFSMKPTAVRLGELLGKEIIMAKDVVGEDAKSKAAALKDGEVLMLENVRFHKEETKNDANFAKELASMAEIFVNDAFGTAHRAHASTAGLADYLPAVCGFLIKKEIEFMGKALANPARPFVAILGGAKVSDKIAVIENLIDKVDTLIIGGGMAYTFLKAKGYHIGNSICEEDKIDLAKTLMEKAEAKGVEIMLPIGSMVAQEFKNDTEIKYVPSDAMPDGWMGMDIGSLTIENFAKEIKKAKTVIWNGPMGVFEFPNFATGTKEIAKAVAESGALSIVGGGDSAAAVEQLGFADKITHISTGGGASLEFLEGKELPGIAVLMDKNPRKVIAAGNWKMNKTASEAVEFVNALKPAVADAKNEVVVGVPFVCLPGVVAAAKGSNIKVAAQNMHWEEKGAFTGEVSGPMLADLGVDYVIIGHSERREYFGETNEMINKKAHAIFKYGMTPIICCGETLTQREQGVTADHIRYQIKVALLDLTAEQVSKLVIAYEPIWAIGTGKTATNEQANEVCTIIRELVAELYGSEVAEHVRIQYGGSVNAKNATELFAMSDIDGGLVGGASLKVEDFSIIAKA
notes: full-length, C-terminal His tag (pET28a), E. coli BL21(DE3), Ni-NTA, anion exchange, gel filtration
Km [5]: 4.66 ± 1.24 mM | kcat [5]: 2831 ± 348 iu/µmol | Km [6]: 0.48 ± 0.07 mM | kcat [6]: kcat = 4256 ± 148 iu/umol | Km (purified protein [7]): 0.08 ± 0.002 mM | kcat (purified protein [7]): 733 ± 12 iu/µmol | Km (purified protein [8]): 0.135 ± 0.008 mM | kcat (purified protein [8]): 771 ± 20 iu/µmol

B4: Acetate kinase (AK) (Ruminiclostridium cellulolyticum H10) (protein)
chain: MKVLVINAGSSSLKYQLIDMKNETVLAKGLCDRIGIDNSFIKQSRGSEEAVILNKELKNHKDAIEAVISALTDDNMGVIKNMSEISAVGHRIVHGGEKFNSSVVIDENVMNAVRECIDVAPLHNPPNIIGIEACQQIMPNIPMVAVFDTTFHSSMPDYAYLYALPYELYEKYGIRKYGFHGTSHKYVAERASAMLDKSLNELKIITCHLGNGSSICAVNKGKSIDTSMGFTPLQGLAMGTRSGTIDPEVVTFLMEKENLDVKGVSKLLNKKSGVLGISGVSSDFRDLHAAADAGNSRAELAIEIFCYGVKKFIGEYIAVMNGVDAIVFTAGVGENNSVVRNMIISDMDFLGIKIDEEKNKLRGQEVDISTADAAVRTLVIPTNEELAIARETVRLVK
notes: as for B1
Km (HPLC-RI of products [9]): 1.49 ± 0.2 mM | kcat (HPLC-RI of products [9]): 25,112 ± 1755 iu/µmol | Km (HPLC-RI of products [10]): 1.13 ± 0.21 mM | kcat (HPLC-RI of products [10]): 25,437 ± 1668 iu/µmol | Km (HPLC-RI of products [11]): 1.47 ± 0.17 mM | kcat (HPLC-RI of products [11]): 16.68 ± 0.74 iu/µmol | Km (HPLC-RI of products [12]): 1.47 ± 0.13 mM | kcat (HPLC-RI of products [12]): 35,365 ± 1,150 iu/µmol | Km (purified protein [13]): 2.37 ± 0.38 mM | kcat (purified protein [13]): kcat = 12.85 ± 0.85 iu/umol

B5: Pyruvate kinase (PK) (Ruminiclostridium cellulolyticum H10) (protein)
chain: MRRTKIICTLGPASDNEDILRKMMLGGMSLARMNFSHGTHEEHKKRADLVKKIREELNLPIPLLLDTKGPEIRTGKFKNDQAILKENNEFILVNEDILGDETKCTITYKELYKDVSRGSKILINDGLVELEVTEIKNKDIYCRVLNGGAVGNHKGINVPGAEIKLPSLTEQDIDDIKFGIKNDFDIIAASFVRKASDVVEIRKVLEKNGGKDILIIAKIENREGIKNFNDILKVSDGIMVARGDLGVEIPVEEVPIVQKNIIEKCYQNGKPVITATQMLDSMIRNPRPTRAEASDVANAIFDGTSCVMLSGETAAGKYPIETIEVMAKIAEKAEKSMDYWNRFATARTELDTSVTNAISHATCTTALDLKAAAIITVTQSGHTARMIARFRPACPIIATTANPKVQRQLNLSWGVMPYLVGIAKTTDDMFDNGVEKALESGLVKNGDLAVITAGMPAGISGTTNTLKVHIVGRVLVQGVGIGTSSVTGELCVAQNTKEAMDKFTDGNIIVAPFTDNSMLPVIKRASAIVVEEHGQSCHAATVGLALDIPVILGAENATKILKAGSVVTVDSERGLVIRCN
notes: as for B1
Km (HPLC-RI of pyruvate [14]): 1.87 ± 0.14 mM | kcat (HPLC-RI of pyruvate [14]): 9508 ± 328 iu/µmol | Km (HPLC-RI of pyruvate [15]): 1.56 ± 0.02 mM | kcat (HPLC-RI of pyruvate [15]): 9212 ± 50 iu/µmol | Km (HPLC-RI of pyruvate [16]): 0.90 ± 0.14 mM | kcat (HPLC-RI of pyruvate [16]): 977 ± 48 iu/µmol
